{"source": "paper PMC10462845", "about": "(Neoplasia (New York, N.Y.), 2023)", "binders": {"B1": {"name": "BTB/POZ domain of KCASH1 (KCTD11) (BTB/POZ11) (domain or fragment)", "chain": "GPVTLNVGGTLYSTTLETLTRFPDSMLGAMFRAGTPMPPNLNSQGGGHYFIDRDGKAFRHILNFLRLGRLDLPRGYGETALLRAEADFYQIRPLLDALRELEASQG"}, "B2": {"name": "KCASH2 (KCTD21), full length, recombinant (natural protein)", "chain": "MSDPITLNVGGKLYTTSLATLTSFPDSMLGAMFSGKMPTKRDSQGNCFIDRDGKVFRYILNFLRTSHLDLPEDFQEMGLLRREADFYQVQPLIEALQEKEVELSKAEKNAMLNITLNQRVQTVHFTVREAPQIYSLSSSSMEVFNANIFSTSCLFLKLLGSKLFYCSNGNLSSITSHLQDPNHLTLDWVANVEGLPEEEYTKQNLKRLWVVPANKQINSFQVFVEEVLKIALSDGFCIDSSHPHALDFMNNKIIRLIRYR"}}, "experiment_in_all_cases": "MST", "key": {"[1]": {"target": "T1, C-terminal BTB/POZ containing fragment of KCTD1 (BTB/POZ1) (UniProt Q719H9 1-257)", "T1 sequence": "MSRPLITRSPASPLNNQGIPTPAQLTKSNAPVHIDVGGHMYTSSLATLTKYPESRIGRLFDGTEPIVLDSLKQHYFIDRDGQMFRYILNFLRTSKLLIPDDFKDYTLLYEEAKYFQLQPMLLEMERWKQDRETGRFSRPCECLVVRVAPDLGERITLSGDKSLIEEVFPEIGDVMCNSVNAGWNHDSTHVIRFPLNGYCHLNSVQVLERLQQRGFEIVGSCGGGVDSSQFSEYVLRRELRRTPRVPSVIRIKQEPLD"}, "[2]": {"target": "C-terminal BTB/POZ containing fragment of KCTD1 (BTB/POZ1) (UniProt Q719H9)"}, "[3]": {"target": "BTB/POZ domain of KCTD15 (BTB/POZ15) (UniProt Q96SI1)", "sequence (Q96SI1 whole entry, the tested form may be a part)": "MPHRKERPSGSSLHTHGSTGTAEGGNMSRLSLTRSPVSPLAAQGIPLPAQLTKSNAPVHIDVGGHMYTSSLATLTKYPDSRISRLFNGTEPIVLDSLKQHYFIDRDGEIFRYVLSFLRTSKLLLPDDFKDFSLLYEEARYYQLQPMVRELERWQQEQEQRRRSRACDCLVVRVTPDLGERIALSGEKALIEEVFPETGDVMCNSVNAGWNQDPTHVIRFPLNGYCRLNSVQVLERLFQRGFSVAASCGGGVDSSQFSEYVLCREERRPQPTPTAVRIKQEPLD"}}, "data": [{"binder": "B1", "values": [{"measurement": "Kd", "setting": "[1]", "result": "0.8 ± 0.1", "unit": "µM"}]}, {"binder": "B2", "values": [{"measurement": "Kd", "setting": "[2]", "result": 3.9, "unit": "µM"}, {"measurement": "Kd", "setting": "[3]", "result": 6.6, "unit": "µM"}]}]}
